Measurements taken from patent US20190367607A1 (DUKE UNIVERSITY, published 2019).
Positions count from the first letter of the chain named.

B1: HB22-103 (antibody, V domains shown)
VH: QVQLQQPGTELVKPGASVKLSCKASGYTFTSYWMHWVKQRPGQGLEWIGMIHPNRGTTNYNEKFKSKATLTVDKSSSTAYMQLSSLTSEDSAVYYCARYYDYDPDYWGQGTTLTVSS
VL: DIVLTQSPATLSVTPGDSVSLSCRASQSISNNLHWFQQKSHESPRLLIKYGYQSISGIPSRFSGSGSGTDFTLSINSVETEDFGMYFCQQSYRWPYTFGGGTKLEIK
notes: also called HB22-103 mAb; HB22 mAb
B2: HB22-107 (antibody, V domains shown)
VH: DVKLVESGEGLVKPGGSLKLSCAASGFTFSSYAMSWVRQTPEKRLEWVAYITSGGDYIYYADTVKGRFTISRDDARNTLYLQMSSLKSEDTAMYYCTRDQGYYYDGRPTWFAYWGQGTLVTVSA
VL: DIVMIQSPSSLAMSVGQKVTMRCKSSQSLLSSSNQKNYLAWYQQKPGQSPKLLVYFASTRESGVPDRFIGSGSGTDFTLTINSVQAEDLADYFCQQHYSTPLTFGAGTKLELK
notes: Mouse IgG1 monoclonal antibody to human CD22; also called HB22-107 mAb; HB22 mAb
B3: HB22-115 (antibody, V domains shown)
VH: B1 VH with T9A, R55S, T57S, N61S
VL: B1 VL with S20T, S28G, F36Y, K39Q, Y50F, G51T, Y52S, I55V, I75V, Y92N
notes: Mouse IgG1 monoclonal antibody to human CD22; also called HB22-115 mAb; HB22 mAb

Target: T1, human CD22 on B cells of hCD22-Tg+/+ mCD22-/- transgenic mice (human, UniProt P20273 20-847)
T1 construct: whole, on cells; Expressed from the human CD22 gene with its endogenous regulatory elements
Assay: flow cytometry of blood B220+ B cells from hCD22-Tg mice 7 days after mAb injection, stained with anti-mouse IgG1
Protocol: FIGS. 20A-20B are a set of histograms and scatter plots showing B10 cell-depleting mAbs in hCD22-Tg mice bind B220⁺B cells. Blood lymphocytes isolated from hCD22-Tg mice given either HB22-103, HB22-107, HB22-115 or an isotype-matched (IgG1) mAb (250 μg/mouse) 7 days earlier in FIG. 16 were assessed for relative HB22 mAb binding by immunofluorescence staining with fluorochrome-conjugated anti-mouse IgG1 isotype-specific antibody. […] Bars indicate means, with significant differences between group means indicated: **, p<0.01; ***, p<0.001.

Binding result, binds:
B1
B2
B3
